Experimental data published in US20210030804A1.

Target: CD19 on Nalm6 leukemia cells (UniProt P15391)
Test: cell-based or functional assay

Chain of UniProt P15391 (P15391 20-556 limits assumed): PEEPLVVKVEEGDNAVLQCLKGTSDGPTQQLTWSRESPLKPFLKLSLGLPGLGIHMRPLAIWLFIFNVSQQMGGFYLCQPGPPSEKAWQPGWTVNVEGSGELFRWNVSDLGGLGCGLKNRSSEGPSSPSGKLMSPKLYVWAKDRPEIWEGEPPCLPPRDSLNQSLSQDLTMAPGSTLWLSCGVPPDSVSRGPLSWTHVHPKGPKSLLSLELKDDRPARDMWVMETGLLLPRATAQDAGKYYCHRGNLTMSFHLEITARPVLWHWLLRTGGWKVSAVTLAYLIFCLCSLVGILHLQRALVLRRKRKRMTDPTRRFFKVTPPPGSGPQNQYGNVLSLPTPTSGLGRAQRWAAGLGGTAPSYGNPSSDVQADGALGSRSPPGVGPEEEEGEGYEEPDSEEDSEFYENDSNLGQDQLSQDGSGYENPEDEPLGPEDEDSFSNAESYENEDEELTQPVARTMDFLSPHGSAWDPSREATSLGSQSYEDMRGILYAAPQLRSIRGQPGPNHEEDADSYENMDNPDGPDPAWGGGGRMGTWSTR

B1: CD19 CAR (receptor, from a related filing)
chain: EVKLQQSGAELVRPGSSVKISCKASGYAFSSYWMNWVKQRPGQGLEWIGQIYPGDGDTNYNGKFKGQATLTADKSSSTAYMQLSGLTSEDSAVYFCARKTISSVVDFYFDYWGQGTTVTVSSGGGGSGGGGSGGGGSDIELTQSPKFMSTSVGDRVSVTCKASQNVGTNVAWYQQKPGQSPKPLIYSATYRNSGVPDRFTGSGSGTDFTLTITNVQSKDLADYFCQQYNRYPYTSGGGTKLEIKRAAAIEVMYPPPYLDNEKSNGTIIHVKGKHLCPSPLFPGPSKPFWVLVVVGGVLACYSLLVTVAFIIFWVRSKRSRLLHSDYMNMTPRRPGPTRKHYQPYAPPRDFAAYRSRVKFSRSADAPAYQQGQNQLYNELNLGRREEYDVLDKRRGRDPEMGGKPRRKNPQEGLYNELQKDKMAEAYSEIGMKGERRRGKGHDGLYQGLSTATKDTYDALHMQALPPR
- Tumor Cell Killing Percentage (Nalm6 killed, 22 h co-culture, FACS with counting beads); E/T 0.024; CD19 level high: 32%
- Tumor Cell Killing Percentage (Nalm6 killed, 22 h co-culture, FACS with counting beads); E/T 0.024; CD19 level low: 16.3%
- Tumor Cell Killing Percentage (Nalm6 killed, 22 h co-culture, FACS with counting beads); E/T 0.024; CD19 level medium: 17.2%
- Tumor Cell Killing Percentage (Nalm6 killed, 22 h co-culture, FACS with counting beads); E/T 0.024; CD19 level very low: 0%
- Tumor Cell Killing Percentage (Nalm6 killed, 22 h co-culture, FACS with counting beads); E/T 0.12; CD19 level high: 63.4%
- Tumor Cell Killing Percentage (Nalm6 killed, 22 h co-culture, FACS with counting beads); E/T 0.12; CD19 level low: 53.3%
- Tumor Cell Killing Percentage (Nalm6 killed, 22 h co-culture, FACS with counting beads); E/T 0.12; CD19 level medium: 63.6%
- Tumor Cell Killing Percentage (Nalm6 killed, 22 h co-culture, FACS with counting beads); E/T 0.12; CD19 level very low: 0.4%
- Tumor Cell Killing Percentage (Nalm6 killed, 22 h co-culture, FACS with counting beads); E/T 0.6; CD19 level high: 84.4%
- Tumor Cell Killing Percentage (Nalm6 killed, 22 h co-culture, FACS with counting beads); E/T 0.6; CD19 level low: 77.2%
- Tumor Cell Killing Percentage (Nalm6 killed, 22 h co-culture, FACS with counting beads); E/T 0.6; CD19 level medium: 79.4%
- Tumor Cell Killing Percentage (Nalm6 killed, 22 h co-culture, FACS with counting beads); E/T 0.6; CD19 level very low: 8.37%
